Here are results for four proteins from US20050089880.

Data set [1] deals with T1, N-terminus of rat macro-H2A peptide.
T1 chain: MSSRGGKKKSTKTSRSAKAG

For data set [2], the target named is T2, N-terminus of human CENP-A peptide.
T2 chain: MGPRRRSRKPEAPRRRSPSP

The target in data set [3] is T3, mutated H3 (K9L) N-terminal peptide.
T3 chain: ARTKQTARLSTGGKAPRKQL

For data set [4], the target named is wild-type N-terminus of human histone H3 peptide (aa 1-20).

B1: murine GST-Suv39h1(aa 82-412) (protein)
chain: CIRVLKQFHKDLERELVRRHRRSKPPRHLDPNLANYLVQKAKQRRALQRWEQELNAKRSHLGRITVENEVDLDGPPRSFVYINEYRVGEGITLNQVAVGCECQDCLLAPTGGCCPGASLHKFAYNDQGQVRLKAGQPIYECNSRCCCGYDCPNRVVQKGIRYDLCIFRTNDGRGWGVRTLEKIRKNSFVMEYVGEIITSEEAERRGQIYDRQGATYLFDLDYVEDVYTVDAAYYGNISHFVNHSCDPNLQVYNVFIDNLDERLPRIAFFATRTIWAGEELTFDYNMQVDPVDMESTRMDSNFGLAGLPGSPKKRVRIECKCGTTACRKYLF
As for B1, the “in vitro methylation of individual histones (fluorography)” value is given as “A weak signal is present if H1 was used as the sole substrate” in the data set with histone H1; “H3 is specifically methylated by GST-Suv39h1(aa 82-412)” with histone H3; “no signals are detected with H2A, H2B or H4” with histone H4; “no signals are detected with H2A, H2B or H4” with histone H2A; “no signals are detected with H2A, H2B or H4” with histone H2B. The “in vitro methylation of N-terminal peptides (SDS-PAGE, fluorography)” value in data set [1] is listed as “no signals were detected with the CENP-A or macroH2A peptides, or with insulin”; in data set [2], “no signals were detected with the CENP-A or macroH2A peptides, or with insulin”; with insulin, “no signals were detected with the CENP-A or macroH2A peptides, or with insulin”; in data set [3] it was “the mutated H3 (K9L) peptide was not a substrate”; in [4] it was “selective methylation of the wild-type H3 peptide”. Also, in the data set with histone H3, the “in vitro HMTase activity (free histones, fluorography)” value is listed as “maintained HMTase activity (although at a reduced level as compared to transfected SUV39H1)”. The “3H-incorporation of individual amino acids (microsequencing of the in vitro methylated peptide, scintillation counting)” value in data set [4] is reported as “The results confirmed selective transfer of methyl-label to lysine 9”.

B2: murine GST-Suv39h1 product comprising aa 7-221 (protein)
chain: GCSVCCKSSWNQLQDLCRLAKLSCPALGVSKKNLYDFEVEYLCDYKKIREQEYYLVKWRGYPDSENTWEPRQNLKCIRVLKQFHKDLERELVRRHRRSKPPRHLDPNLANYLVQKAKQRRALQRWEQELNAKRSHLGRITVENEVDLDGPPRSFVYINEYRVGEGITLNQVAVGCECQDCLLAPTGGCCPGASLHKFAYNDQGQVRLKAGQPIYE
As for B2, the “in vitro HMTase activity (free histones, fluorography)” value with histone H3 is recorded as “proved negative, even at higher protein concentrations”.

B3: triple myc-tagged C-terminally truncated SUV39H1 protein (aa 3-118) (protein)
chain: ENLKGCSVCCKSSWNQLQDLCRLAKLSCPALGISKRNLYDFEVEYLCDYKKIREQEYYLVKWRGYPDSESTWEPRQNLKCVRILKQFHKDLERELLRRHHRSKTPRHLDPSLANYL
With B3, the “in vitro HMTase activity (transfer of 14C-methyl label to free histones, fluorography)” value with histone H3 is recorded as “no signals were detected with extracts from a HeLa cell line that expresses only the N-terminal third of SUV39H1 (aa 3-118)”.

B4: triple myc-tagged full-length human SUV39H1 (aa 3-412) (protein)
chain: ENLKGCSVCCKSSWNQLQDLCRLAKLSCPALGISKRNLYDFEVEYLCDYKKIREQEYYLVKWRGYPDSESTWEPRQNLKCVRILKQFHKDLERELLRRHHRSKTPRHLDPSLANYLVQKAKQRRALRRWEQELNAKRSHLGRITVENEVDLDGPPRAFVYINEYRVGEGITLNQVAVGCECQDCLWAPTGGCCPGASLHKFAYNDQGQVRLRAGLPIYECNSRCRCGYDCPNRVVQKGIRYDLCIFRTDDGRGWGVRTLEKIRKNSFVMEYVGEIITSEEAERRGQIYDRQGATYLFDLDYVEDVYTVDAAYYGNISHFVNHSCDPNLQVYNVFIDNLDERLPRIAFFATRTIRAGEELTFDYNMQVDPVDMESTRMDSNFGLAGLPGSPKKRVRIECKCGTESCRKYLF
In the case of B4, the “in vitro HMTase activity (transfer of 14C-methyl label to free histones, fluorography)” value in the data set with histone H3 was “indicating selective transfer of the methyl-label to H3”.
